10 molecules from patent publication US20240270821A1, “GIP/GLP1/GCG TRI-RECEPTOR AGONISTS AND USES THEREOF” (priority 2023, published 2024) can be followed below.

Common to all, as to test: cell-based or functional assay
In one assay the target is hGLP-1R (Homo sapiens, UniProt P43220).
Assay [1] concerns the target T1, human GIP receptor (human) (UniProt P48546).
T1 sequence (looked up): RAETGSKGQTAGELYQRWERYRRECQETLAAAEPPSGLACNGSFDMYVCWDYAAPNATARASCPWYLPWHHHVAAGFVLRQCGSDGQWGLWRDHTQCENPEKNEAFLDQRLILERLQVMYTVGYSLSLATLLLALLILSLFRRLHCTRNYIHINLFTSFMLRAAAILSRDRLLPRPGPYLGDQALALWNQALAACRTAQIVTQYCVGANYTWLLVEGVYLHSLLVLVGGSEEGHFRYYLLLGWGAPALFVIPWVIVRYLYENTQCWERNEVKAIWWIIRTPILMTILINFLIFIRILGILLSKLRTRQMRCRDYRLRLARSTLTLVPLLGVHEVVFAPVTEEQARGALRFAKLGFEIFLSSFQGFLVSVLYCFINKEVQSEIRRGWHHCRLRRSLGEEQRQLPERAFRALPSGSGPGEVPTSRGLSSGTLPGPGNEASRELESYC

In assay [2] the target is human glucagon receptor (human) (UniProt P47871).
Chain of human glucagon receptor (human) (P47871 26-477): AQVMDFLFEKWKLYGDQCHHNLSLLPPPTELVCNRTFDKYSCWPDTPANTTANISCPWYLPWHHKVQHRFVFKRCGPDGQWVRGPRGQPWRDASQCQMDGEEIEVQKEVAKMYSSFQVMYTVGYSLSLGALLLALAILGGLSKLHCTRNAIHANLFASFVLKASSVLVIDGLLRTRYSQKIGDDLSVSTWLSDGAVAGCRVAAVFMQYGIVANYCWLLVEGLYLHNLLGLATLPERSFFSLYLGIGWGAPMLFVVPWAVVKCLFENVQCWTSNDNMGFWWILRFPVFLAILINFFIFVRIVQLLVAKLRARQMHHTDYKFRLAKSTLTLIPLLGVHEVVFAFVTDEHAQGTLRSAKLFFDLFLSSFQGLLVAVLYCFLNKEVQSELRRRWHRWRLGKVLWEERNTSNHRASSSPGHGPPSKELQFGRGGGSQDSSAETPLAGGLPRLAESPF

Chain of hGLP-1R (P43220 24-463): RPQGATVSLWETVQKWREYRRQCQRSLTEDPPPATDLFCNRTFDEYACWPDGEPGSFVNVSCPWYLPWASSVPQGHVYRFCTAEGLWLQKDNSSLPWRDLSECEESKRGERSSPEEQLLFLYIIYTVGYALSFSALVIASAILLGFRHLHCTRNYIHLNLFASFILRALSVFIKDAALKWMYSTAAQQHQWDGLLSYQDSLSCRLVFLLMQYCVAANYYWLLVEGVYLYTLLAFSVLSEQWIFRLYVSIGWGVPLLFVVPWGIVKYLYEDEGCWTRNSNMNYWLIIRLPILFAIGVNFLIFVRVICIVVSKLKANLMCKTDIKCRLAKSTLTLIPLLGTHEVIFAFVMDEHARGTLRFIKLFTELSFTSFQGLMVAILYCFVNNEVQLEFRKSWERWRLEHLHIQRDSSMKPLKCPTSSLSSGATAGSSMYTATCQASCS

B1: Example 977 (peptide)
chain: YXQGTFTSDXSQXLDXKAQXAFIEYLIAGGPSSGEPPPSGSE
modifications: synthetic construct; SITE 2: note = 2-Aminoisobutyric Acid; SITE 10: note = 3-(4-Pyridyl)-L-alanine; SITE 13: note = alpha-methyl-leucine; SITE 16: note = L-ornithine; SITE 17: note = Lysine is chemically modified through conjugation of the epsilon-amino group of the Lysine side chain with (gamma-Gl)
On to B1, for which the Relative cAMP EC50 in the assay with hGLP-1R stood at 1.1 nM; in assay [1], 0.189 nM; in assay [2] it was 7.18 nM. Besides, the cAMP Rel EC50, nM (1% HSA) in the assay with hGLP-1R stood at 159 nM; in assay [1], 23 nM; in assay [2], 839 nM.

B2: Example 980 (peptide)
chain: YXQGTFTSDXSXXLDKKAQXAFIEYLIAGGPSSGEPPPSGTE
modifications: synthetic construct; SITE 2: note = 2-Aminoisobutyric Acid; SITE 10: note = 3-(4-Pyridyl)-L-alanine; SITE 12: note = L-ornithine; SITE 13: note = alpha-methyl-leucine; SITE 17: note = Lysine is chemically modified through conjugation of the epsilon-amino group of the Lysine side chain with (gamma-Gl)
With B2, the Relative cAMP EC50 in the assay with hGLP-1R came to 2.26 nM; in assay [1] it was 0.18 nM; in assay [2] it was 2.41 nM. Also, the values for the cAMP Rel EC50, nM (1% HSA) (in the assay with hGLP-1R; in assay [1]; in assay [2]) were 290 nM, 15.4 nM and 239 nM, respectively.

B3: Example 978 (peptide)
chain: YXQGTFTSDXSQXLDXKAQXAFIEYLIAGGPSSGEPPPSGSGE
modifications: synthetic construct; SITE 2: note = 2-Aminoisobutyric Acid; SITE 10: note = 3-(4-Pyridyl)-L-alanine; SITE 13: note = alpha-methyl-leucine; SITE 16: note = L-ornithine; SITE 17: note = Lysine is chemically modified through conjugation of the epsilon-amino group of the Lysine side chain with (gamma-Gl)
Consider B3, for which the Relative cAMP EC50 in the assay with hGLP-1R was found to be 1.6 nM; in assay [1], 0.284 nM; in assay [2], 8.91 nM. Also, the cAMP Rel EC50, nM (1% HSA) with hGLP-1R is 174 nM; in assay [1] it was 33.9 nM; in assay [2] it was 824 nM.

B4: Example 981 (peptide)
chain: YXQGTFTSDXSXXLDKKAQXAFIEYLIAGGPSSGEPPPSGTEE
modifications: synthetic construct; SITE 2: note = 2-Aminoisobutyric Acid; SITE 10: note = 3-(4-Pyridyl)-L-alanine; SITE 12: note = L-ornithine; SITE 13: note = alpha-methyl-leucine; SITE 17: note = Lysine is chemically modified through conjugation of the epsilon-amino group of the Lysine side chain with (gamma-Gl)
With B4, the Relative cAMP EC50 in the assay with hGLP-1R was determined as 4.45 nM; in assay [1], 0.243 nM; in assay [2], 3.7 nM. The cAMP Rel EC50, nM (1% HSA) was 330 nM in the assay with hGLP-1R, 21.1 nM in assay [1] and 477 nM in assay [2].

B5: Example 979 (peptide)
chain: YXQGTFTSDXSXXLDKKAQXAFIEYLIAGGPSSGEPPPSGE
modifications: synthetic construct; SITE 2: note = 2-Aminoisobutyric Acid; SITE 10: note = 3-(4-Pyridyl)-L-alanine; SITE 12: note = L-ornithine; SITE 13: note = alpha-methyl-leucine; SITE 17: note = Lysine is chemically modified through conjugation of the epsilon-amino group of the Lysine side chain with (gamma-Gl)
Consider B5, for which the Relative cAMP EC50 with hGLP-1R stood at 2.72 nM; in assay [1], 0.181 nM; in assay [2], 3.34 nM. The values for the cAMP Rel EC50, nM (1% HSA) (with hGLP-1R; in assay [1]; in assay [2]) were 257 nM, 19.2 nM and 359 nM, respectively.

B6: Example 983 (peptide)
chain: YXQGTFTSDXSXXLDXKAQXAFIEYLIAGGPSSGEPPPSGE
modifications: Lys acylated (γ-Glu)2-C18 diacid; non-natural residues; C-terminal amide; synthetic construct; SITE 2: note = 2-Aminoisobutyric Acid; SITE 10: note = 3-(4-Pyridyl)-L-alanine; SITE 12: note = L-ornithine; SITE 13: note = alpha-methyl-leucine; SITE 16: note = L-ornithine; SITE 17: note = Lysine is chemically modified through conjugation of the epsilon-amino group of the Lys
Consider B6, for which the results for the Relative cAMP EC50 (with hGLP-1R; in assay [1]; in assay [2]) were 2.35 nM, 0.289 nM and 4.75 nM, respectively. In addition, the cAMP Rel EC50, nM (1% HSA) with hGLP-1R is 207 nM; in assay [1], 19.4 nM; in assay [2], 576 nM.

B7: Example 982 (peptide)
chain: YXQGTFTSDXSXXLDKKAQXAFIEYLIAGGPSSGEPPPSGTEEE
modifications: synthetic construct; SITE 2: note = 2-Aminoisobutyric Acid; SITE 10: note = 3-(4-Pyridyl)-L-alanine; SITE 12: note = L-ornithine; SITE 13: note = alpha-methyl-leucine; SITE 17: note = Lysine is chemically modified through conjugation of the epsilon-amino group of the Lysine side chain with (gamma-Gl)
As for B7, the Relative cAMP EC50 in the assay with hGLP-1R was determined as 4.94 nM; in assay [1], 0.328 nM; in assay [2] it was 3.91 nM. Also, the values for the cAMP Rel EC50, nM (1% HSA) (in the assay with hGLP-1R; in assay [1]; in assay [2]) were 310 nM, 19.4 nM and 307 nM, respectively.

B8: Example 974 (peptide)
chain: YXQGTFTSDXSXXLDXKAQXXFIEXLIEGGPSSGAPPPSGSEE
modifications: Aib, 4Pal, Orn, Me4Pal, alpha-methyl-Tyr, lipidated Lys, amide; synthetic construct; SITE 2: note = 2-Aminoisobutyric Acid; SITE 10: note = 3-(4-Pyridyl)-L-alanine; SITE 12: note = L-ornithine; SITE 13: note = alpha-methyl-leucine; SITE 16: note = L-ornithine; SITE 17: note = Lysine is chemically modified through conjugation of the epsilon-amino group of the Lys
For the molecule B8, the results for the cAMP Rel EC50, nM (1% HSA) (in the assay with hGLP-1R; in assay [1]; in assay [2]) were 283 nM, 80.9 nM and 870 nM, respectively.

B9: Example 975 (peptide)
chain: YXQGTFTSDXSXXLDXKAQXQFIEXLLEGGPSSGAPPPSGSEE
modifications: non-natural residues; acylated Lys; C-terminal amide; synthetic construct; SITE 2: note = 2-Aminoisobutyric Acid; SITE 10: note = 3-(4-Pyridyl)-L-alanine; SITE 12: note = L-ornithine; SITE 13: note = alpha-methyl-leucine; SITE 16: note = L-ornithine; SITE 17: note = Lysine is chemically modified through conjugation of the epsilon-amino group of the Lys
Take B9: the cAMP Rel EC50, nM (1% HSA) with hGLP-1R is 1810 nM; in assay [1], 30.1 nM; in assay [2] it was 374 nM.

B10: Example 976 (peptide)
chain: YXQGTFTSDXSXXLDXKAQXEFIEXLLEGGPSSGAPPPSGSEE
modifications: non-natural residues; lipidated Lys; C-terminal amide; synthetic construct; SITE 2: note = 2-Aminoisobutyric Acid; SITE 10: note = 3-(4-Pyridyl)-L-alanine; SITE 12: note = L-ornithine; SITE 13: note = alpha-methyl-leucine; SITE 16: note = L-ornithine; SITE 17: note = Lysine is chemically modified through conjugation of the epsilon-amino group of the Lys
For B10, the results for the cAMP Rel EC50, nM (1% HSA) (with hGLP-1R; in assay [1]; in assay [2]) were 2860 nM, 82.7 nM and 848 nM, respectively.
